Consider eleven proteins from patent US20150118700.

Data set [1] deals with T1, α-fructosyl hexapeptide (α-fructosyl-valyl-histidyl-leucyl-threonyl-propyl-glutamic acid).
T1 chain: VHLTPE

The target in data set [2] is T2, α-fructosyl valyl histidine.
T2 chain: VH

Residue numbers refer to the chain shown, from its start.

B1: CFP-T7 (protein)
chain: MTSNRADTRVIVVGGGGTIGSSTALHLVRSGYAPANITVLDTFEIPSAQSAGHDLNKIMGIRLRNKVDLQMSLEARQMWKEDELFQPFFHNTGRMDCEHTPEGIEDLKKQYQALHDAGAGLEKTHAWLDNEDEILSKMPLLQRDQIQGWKAIWSQDGGWLAAAKAINAIGQFLKERGVKFGFGGAGSFKQPLFDDEGTTCIGVETADGTKYYADKVVLAAGAWSPTLVDLEDQCCSKAWVYAHIQLTPEEAAEYKGVPVVYNGEFGFFFEPDEFGVIKVCDEFPGFSRFKEHQPYGAPSPKRISVPRSHAKHPTDTYPDASEVSIKKAIATFLPRFQDKELFNRALCWCTDTADAALLMCEHPKWKNFILATGDSGHSFKILPNVGKYVVELIEGRLPEEMAYQWRWRPGGDALKSRRAAPPKDLADMPGWKHDPKL
Regarding B1, in data set [1], the Specific activity (U/mg), 1 mM αF6P is 0 U/mg; the “ΔA at 751 nm (hydrogen peroxide generated upon oxidation of αF6P) against αF6P concentration” value was “no correlation was observed between ΔA and αF6P concentration”; the αF6P oxidation activity, relative to αFVH oxidation activity designated to be 100 (relative (αFVH = 100)) was determined as 0. In data set [2], the Specific activity (U/mg), 1 mM αFVH stood at 16.5 U/mg.

B2: CFP-T7-62D (protein)
chain: B1 chain with R62D
Consider B2, for which, in data set [1], the Specific activity (U/mg), 1 mM αF6P amounted to 0.018 U/mg and the “specific activity on αF6P, fold over PnFX (Present Invention 26/Comparative Example 3)” value is 2 times (Present Invention 26/Comparative Example 3) to 1,940 times (Present Invention 25/Comparative Example 2) greater. This protein came in with a Specific activity (U/mg), 1 mM αFVH in data set [2] of 1.62 U/mg.

B3: CFP-T7-H2-62N (protein)
chain: B1 chain with R62N, Q110L
For the protein B3, the αF6P oxidation activity ratio, relative to CFP-T7-H2 designated to be 100 (relative (CFP-T7-H2 = 100)) in data set [1] stood at 120.

B4: CFP-T7-H35 (protein)
chain: B1 chain with R62D, L63H, E102K, D106K, Q110L, A113K, A355S
As to B4, in data set [1], the Specific activity (U/mg), 1 mM αF6P was determined as 4.27 U/mg; the “specific activity on αF6P, fold over FAOAo2 (Present Invention 25/Comparative Example 2)” value is 2 times (Present Invention 26/Comparative Example 3) to 1,940 times (Present Invention 25/Comparative Example 2) greater; the “ΔA at 751 nm (hydrogen peroxide generated upon oxidation of αF6P) against αF6P concentration” value was “a favorable correlation was developed between ΔA and αF6P concentration in the range of αF6P concentration from 0.5 µM to 10 µM”; the αF6P oxidation activity ratio, relative to CFP-T7-H28 = 100 as the table shows (relative (CFP-T7-H28 = 100)) worked out at 206. In data set [2], this protein came in with a Specific activity (U/mg), 1 mM αFVH of 1.9 U/mg.

B5: CFP-T7-H20 (protein)
chain: B1 chain with R62D, D106K, Q110L, A113K
As for B5, in data set [1], the Specific activity (U/mg), 1 mM αF6P stood at 0.85 U/mg; the αF6P oxidation activity ratio (reference, designated to be 100) (relative (CFP-T7-H20 = 100)) came to 100; the αF6P oxidation activity, relative to αFVH oxidation activity designated to be 100 (relative (αFVH = 100)) is 20.5. Besides, the Specific activity (U/mg), 1 mM αFVH in data set [2] came to 4.28 U/mg.

B6: CFP-T7-H21 (protein)
chain: B1 chain with R62D, D106K, Q110L, A113R
In data set [1], B6 registered a Specific activity (U/mg), 1 mM αF6P of 0.795 U/mg and a αF6P oxidation activity, relative to αFVH oxidation activity designated to be 100 (relative (αFVH = 100)) of 20.8. The same protein displayed a Specific activity (U/mg), 1 mM αFVH in data set [2] of 4.05 U/mg.

B7: PnFX-62D/106K/110L/113K (protein)
chain: MAPSRANTSVIVVGGGGTIGSSTALHLVRSGYTPSNVTVLDAYPIPSSQSAGNDLNKIMGVDLRNPVDLQLALEARQMWNEDELFKKFFHNTGRLDCAHGEKDIAKLKSLYQKLVDAGLDATNEWLDSEDEILKRMPLLSRDQIKGWKAIFSKDGGWLAAAKAINAVGEYLRDQGVRFGFYGAGSFKAPLLAEGVCIGVETVDGTRYYADKVVLAAGAWSPTLVELHEQCVSKAWVYGHIQLTPEEAARYKNSPVVYNGDVGFFFEPNEHGVIKVCDEFPGFTRFKMHQPFGAKAPKRISVPRSHAKHPTDTIPDASDVSIRRAIATFMPQFKNKKMFNQAMCWCTDTADAALLICEHPEWKNFVLATGDSGHSFKLLPNIGKHVVELLEGTLADDLAHAWRWRPGSGDALKSRRSAPAKDLADMPGWNHDKPRANL
Take B7: in data set [1], the Specific activity (U/mg), 1 mM αF6P came out at 0.125 U/mg and the “specific activity on αF6P, fold over PnFX” value is recorded as “specific activity was elevated by 13.7 fold”.

B8: PnFX-62D/63H/106K/110L/113K/351S (protein)
chain: B7 chain with L63H, A351S
The protein B8 came in with a Specific activity (U/mg), 1 mM αF6P in data set [1] of 0.667 U/mg.

B9: AnFX-61D/62H/101K/105K/109L/112K/355S (protein)
chain: MTPRANTKIIVVGGGGTMGSSTALHLLRAGYTPSNITVLDTCPIPSAQSAGYDLNKIMGIDHRNKPDLQLSLEALDMWKNDPLFKPFFHNVGMIDVSSTEKGIEKLRKLYQKLLDAGIGLEKTNFMLESEDEILAKAPHFTQEQIKGWKGLFCGDGGWLAAAKAINAIGQFLKEQGVKFGFGGAGTFKKPLFADAHEKTCIGVETVDGTKYYADKVVLAAGAWSSTLVDLEEQCVSKAWVFAHIQLTPAEAAAYKNTPVIYDGDYGFFFEPNENGIIKVCDEFPGFTHFKMHQPYGSPAPKPISVPRSHAKHPTDTYPHASEVTIKKAINRFLPRFNDKELFNRAMCWCTDTADSNLLVCEHPRWKGFYLATGDSGHSFKLLPNIGKHVVELLEERLESVFKDAWRWRPGSGDALKSRRAAPAKDLADMPGWRNEAKM
For the protein B9, the Specific activity (U/mg), 1 mM αF6P in data set [1] is 0.283 U/mg.

B10: amadoriase exhibiting 95% sequence identity with ketoamine oxidase derived from Curvularia clavata (Cc95FX) (protein)
chain: MAPSRANTSVIVVGGGGTIGSSTALHLVRSGYTPSNITVLDAYPIPSSQSAGNDLNKIMGIRLRNKVDLQLSLEARQMWREDDLFKEYFHNTGRLDCAHGEEGLADLRQAYQALLDANAGLEETTEWLDSEDEILKKMPLLSRDQIKGWKAVYSQDGGWLAAAKAINAIGEYLRAQGVKFGFGGAGSFKQPLLAEGVCIGVETVDGTRYYADKVVLAAGAWSPTLVELHEQCVSKAWVYGHIQLTPEEAAEYKNSPVVYNGDVGFFFEPNEHGVIKVCDEFPGFTRFKMHQPFGAKAPKRISVPRSHAKHPTDTIPDASEKSIRKAIATFLPKFTEKELFNRHLCWCTDTADAALLICEHPEWKNFVLATGDSGHSFKLLPNIGKHVVELLEGTLADDLAHAWRWRPGSGDALKSRRSAPAKDLADMPGWKHDDVVKSKL
With B10, the αF6P oxidation activity, relative to αFVH oxidation activity designated to be 100 (relative (αFVH = 100)) in data set [1] came out at 0.

B11: Cc95FX-62D/63H/106K/110L/113K/353S (protein)
chain: B10 chain with R62D, L63H, D106K, A110L, A113K, A353S
In turn, B11 came in with a αF6P oxidation activity, relative to αFVH oxidation activity designated to be 100 (relative (αFVH = 100)) in data set [1] of 237.
